Source: the supplement of paper PMC10567573

B1: RIT1 (parent)
chain: FHALVREIRRKEKEAVLAMEKKSK

Variants of: B1
Assay: protein stability index of a GFP-peptide fusion (GPS, HEK-293T) (PSI 1-6); higher = more stable
Conditions: c terminus: a fixed tail appended
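Note: lentivirally expressed fusions sorted by FACS into six bins by GFP to DsRed ratio, PSI derived from sequencing read proportions per bin multiplied by bin number.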

Protein stability index: each site, then its substitutions
F1: L 2.86; Y 1.92; V 3.04; W 2.43; R 4.48; K 4.06; G 4.36; E 5.2; H 4.2; N 4.67; S 4.14; Q 4.72; M 3.69; I 2.93
L17: V 1.47; S 1.88; C 2.16; Y 2.05; I 2.1; M 1.86; G 1.7; N 2.18; E 2.09; W 1.7; T 2.21; A 1.85
E7: C 2.16; H 1.97; Y 2.04; V 3.23; I 2.24; G 1.62; T 1.5; A 2.79; P 2.58; S 2.44; Q 1.32; M 2.82
M19: K 2.17; H 1.35; V 1.79; R 2.3; G 2.23; P 1.7; F 2.23; T 1.78; L 3.14; Q 1.44; N 2.14; E 1.88; I 1.24; Y 1.76
S23: Q 2.22; F 2.09; E 1.7; L 2.59; T 1.67; I 1.76; A 1.64; Y 2.83; C 2.27; K 2.31; V 1.33; P 1.37; N 1.64; H 1.67; G 1.68; M 1.82
K13: N 2.02; Y 1.81; V 1.26; E 1.08; A 2.04; G 1.37; L 3.67; T 1.77; H 2.38; Q 2.58
A15: I 2.05; T 2.18; S 2.52; N 1.81; H 2.28; M 2.17; W 2.02; Q 2.19; K 2.72; V 2.4; P 2.9; G 1.91; R 1.72; D 2.3
E20: P 2.42; S 2.53; C 1.52; G 1.41; I 1.94; W 2.98; F 2.18; V 2.52; Q 1.65; T 1.92; L 1.61; A 2.07; N 1.88; H 2.12
K21: A 1.9; V 3.01; M 1.28; L 2.2; I 1.41; N 1.77; Q 2.66; H 2.68; S 1.56; W 2.48; E 1.39; D 2.14; F 2.74; P 2.17; T 2.11
E12: T 2.42; L 1.81; V 2.48; N 2.45; M 3.96; F 1.64; C 1.81; G 2.28; K 2.03; S 3; H 2.05; Q 1.89; A 3.79; Y 2.69
K22: T 2.3; Y 1.49; P 1.93; L 1.97; N 2.29; G 1.83; Q 1.67; I 1.71; C 1.65; M 2.34; W 1.46; E 1.87; S 1.42; R 2.41
A3: R 2.05; K 2.04; C 2.07; F 2.34; M 1.96; V 1.69; H 1.41; T 2.28; Y 2.13; G 2.15; S 1.42; P 1.45; N 1.87; Q 2.45
R10: T 2.09; I 2.61; M 2.19; H 2.18; D 1.94; A 3.88; G 2.06; Q 1.36; C 2.7; V 2.29; Y 1.82
I8: M 2.32; T 1.87; P 2.28; D 3.15; G 2.23; V 1.78; H 2.14; F 2.34; K 2.31; E 2.87; C 2.25; A 2.93; N 2.77; W 2.35
K24: G 2.4; P 1.17; H 1.86; N 1.43; C 2.24; Q 1.23; M 1.78; Y 1.86; L 1.99; S 1.38; V 1.46
K11: G 2; Y 1.64; T 2.19; R 1.55; V 1.99; M 2.69; P 2.46; N 1.45; S 1.58; W 2.11; I 1.55; E 2.07; D 1.39; H 2.05; F 1.95; L 2.16
V5: K 1.84; P 1.73; I 2.56; L 2.01; M 2.54; D 2.85; R 2.27; T 1.98; W 1.77; F 1.97; A 1.46; Y 1.82; H 1.97; S 1.43; E 2.65
A18: L 1.66; E 1.22; K 2.5; W 1.68; Q 1.95; S 2.26; P 1.23; H 2.85; M 2.08; V 1.84; T 1.91; R 2.11; F 2.15; G 1.71; N 3.42; Y 1.18
R9: H 1.54; W 2.02; S 1.85; T 1.64; L 2.12; C 1.72; Q 2.5; D 2.48; P 2.8; N 2.23; M 2.03; K 1.77; G 2.27; E 2.06; V 2.42
L4: C 1.92; I 2.35; E 3.18; Y 2.66; R 2.44; P 3.1; N 2.65; K 2.99; V 2.24; M 3.92; D 3.26; S 2.77; G 2.52; W 1.77
H2: D 3.76; N 3.23; Y 2.72; M 2; S 1.96; L 2.61; T 2.55; Q 2.95; R 3.02; G 2.83; F 2.73; C 2.57; A 2.64; P 3.35; W 3.04; E 3.37
V16: P 2.62; Q 2.22; H 2.47; G 1.7; D 1.3; I 1.36; E 2.59; R 2.69; W 2.27; S 2.64; M 1.66; L 2.05; K 1.81; Y 1.95
R6: A 1.34; Q 1.84; W 1.81; I 2.22; F 2.74; S 2.06; T 3.19; K 1.43; N 2.47; D 1.26; M 1.81; L 1.55; V 1.75; C 2.07; H 1.42; G 1.76
E14: T 1.93; C 1.58; M 2.1; W 2.42; V 1.9; Q 1.55; A 2.29; G 1.39; R 1.84; I 1.85; D 1.41; K 2.89; S 1.8
